Assay results taken from PMC6602146 (Molecules and Cells, 2019).

Target: the molecule itself
Test: crystal structure

B1: α-carbonic anhydrase from Persephonella marina EX-H1 (enzyme, UniProt C0QRB5 20-243, looked up)
chain: GGGWSYHGEHGPEHWGDLKDEYIMCKIGKNQSPVDINRIVDAKLKPIKIEYRAGATKVLNNGHTIKVSYEPGSYIVVDGIKFELKQFHFHAPSEHKLKGQHYPFEAHFVHADKHGNLAVIGVFFKEGRENPILEKIWKVMPENAGEEVKLAHKINAEDLLPKDRDYYRYSGSLTTPPCSEGVRWIVMEEEMEMSKEQIEKFRKIMGGDTNRPVQPLNARMIMEK
B1 was tested, and the “stoichiometry N” value was 2.
